This passage reports binding score results from publication PMC11098746 (2024).

Targets include ADP158; ADP390; ADP323.
Common to all, as to test: AVEXIS screen signal:noise (double-corrected)
The next test deals with T1, ADP103.
T1 chain: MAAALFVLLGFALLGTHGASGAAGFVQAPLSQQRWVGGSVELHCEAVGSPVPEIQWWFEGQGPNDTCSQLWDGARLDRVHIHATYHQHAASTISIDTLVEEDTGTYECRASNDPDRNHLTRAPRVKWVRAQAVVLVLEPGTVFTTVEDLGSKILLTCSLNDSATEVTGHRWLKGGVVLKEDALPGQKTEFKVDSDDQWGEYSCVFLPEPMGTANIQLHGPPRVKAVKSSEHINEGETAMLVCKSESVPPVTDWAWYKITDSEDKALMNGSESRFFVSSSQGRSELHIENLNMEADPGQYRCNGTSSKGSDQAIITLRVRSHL

In a further test the target is T2, ADP144.
T2 chain: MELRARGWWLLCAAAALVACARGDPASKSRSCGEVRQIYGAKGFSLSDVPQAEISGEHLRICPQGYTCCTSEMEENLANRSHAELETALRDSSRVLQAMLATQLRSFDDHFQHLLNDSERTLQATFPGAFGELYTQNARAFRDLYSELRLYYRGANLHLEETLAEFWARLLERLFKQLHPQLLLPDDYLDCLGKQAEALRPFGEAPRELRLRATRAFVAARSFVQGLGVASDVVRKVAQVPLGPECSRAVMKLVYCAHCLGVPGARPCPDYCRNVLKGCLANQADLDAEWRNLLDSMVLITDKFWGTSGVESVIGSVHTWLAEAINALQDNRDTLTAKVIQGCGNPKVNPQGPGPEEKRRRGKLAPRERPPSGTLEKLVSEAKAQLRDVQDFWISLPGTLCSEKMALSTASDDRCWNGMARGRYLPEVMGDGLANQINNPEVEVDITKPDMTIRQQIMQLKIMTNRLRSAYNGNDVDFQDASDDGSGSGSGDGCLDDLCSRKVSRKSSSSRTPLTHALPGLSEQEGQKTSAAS

Another test addresses T3, ADP368.
T3 chain: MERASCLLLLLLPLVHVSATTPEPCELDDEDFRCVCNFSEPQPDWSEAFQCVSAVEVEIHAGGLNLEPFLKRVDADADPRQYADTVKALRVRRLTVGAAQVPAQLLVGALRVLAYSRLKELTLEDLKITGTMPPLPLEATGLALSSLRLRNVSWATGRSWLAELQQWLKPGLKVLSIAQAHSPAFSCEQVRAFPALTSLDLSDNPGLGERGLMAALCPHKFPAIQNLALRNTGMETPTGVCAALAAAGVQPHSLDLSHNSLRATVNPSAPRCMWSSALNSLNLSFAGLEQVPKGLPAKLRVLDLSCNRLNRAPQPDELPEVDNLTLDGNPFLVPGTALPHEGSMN

The next test has as its target T4, ADP315.
T4 chain: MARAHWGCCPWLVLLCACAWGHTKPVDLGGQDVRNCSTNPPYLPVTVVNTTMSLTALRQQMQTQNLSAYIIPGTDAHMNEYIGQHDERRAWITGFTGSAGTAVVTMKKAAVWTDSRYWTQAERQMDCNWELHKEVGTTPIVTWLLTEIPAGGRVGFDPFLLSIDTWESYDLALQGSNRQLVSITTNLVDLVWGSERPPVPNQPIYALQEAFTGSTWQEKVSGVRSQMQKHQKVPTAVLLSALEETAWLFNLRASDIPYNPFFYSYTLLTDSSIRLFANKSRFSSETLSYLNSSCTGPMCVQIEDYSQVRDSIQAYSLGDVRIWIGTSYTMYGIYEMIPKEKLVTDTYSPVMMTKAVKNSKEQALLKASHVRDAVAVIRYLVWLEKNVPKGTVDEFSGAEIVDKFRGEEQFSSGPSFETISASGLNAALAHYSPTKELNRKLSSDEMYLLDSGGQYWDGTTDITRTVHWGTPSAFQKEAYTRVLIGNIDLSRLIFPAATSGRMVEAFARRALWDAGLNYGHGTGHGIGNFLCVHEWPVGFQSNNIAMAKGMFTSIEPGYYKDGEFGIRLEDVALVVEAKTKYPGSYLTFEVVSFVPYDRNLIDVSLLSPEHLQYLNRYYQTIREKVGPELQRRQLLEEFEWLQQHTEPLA

A further test concerns the target T5, ADP366.
T5 chain: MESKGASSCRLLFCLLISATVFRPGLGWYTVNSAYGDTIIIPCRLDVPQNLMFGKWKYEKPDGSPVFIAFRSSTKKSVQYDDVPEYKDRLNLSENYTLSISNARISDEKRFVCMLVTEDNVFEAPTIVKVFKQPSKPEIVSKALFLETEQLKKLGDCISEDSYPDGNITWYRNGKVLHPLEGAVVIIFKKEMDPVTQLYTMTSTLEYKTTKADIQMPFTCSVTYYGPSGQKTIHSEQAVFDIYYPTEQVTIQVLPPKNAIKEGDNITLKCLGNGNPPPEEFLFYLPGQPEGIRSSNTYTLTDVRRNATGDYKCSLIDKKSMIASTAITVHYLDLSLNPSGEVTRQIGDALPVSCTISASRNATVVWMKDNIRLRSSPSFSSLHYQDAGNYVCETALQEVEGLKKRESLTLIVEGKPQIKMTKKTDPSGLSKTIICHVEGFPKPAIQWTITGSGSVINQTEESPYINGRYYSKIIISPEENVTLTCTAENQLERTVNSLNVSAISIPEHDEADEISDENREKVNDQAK

B1: ADP167 (protein)
chain: EFKRKQKVEINSLQTNKNNDNIREEKIKGDVESQPDVDGDTCVIFSSSEGNSRNCWCPRGYILCSEEDVLDVQGKLNEIKNKHERSLVTPLWMKRLCDNSNDVGFKSMSVVIDYELAVLCKDGSNKDYADFEIIGASGYITGEEMIEEQKRNPWYVPRKCTVNNFYLCRKVENDNVNCAYTPWSDWSACKNNAQKRYRKVRRSNQNNENFCLWNDKIVPRNIMEQTRSC
modifications: bait human Fc-tagged dimer; N-glycosylation sequons mutated in Plasmodium baits
Turning to B1, the binding score in the test with ADP158 amounted to 19.1.

B2: ADP180 (protein)
chain: RGNQISKCVFYDKRNKDLKQVFYVPTNDVNMYKETIRKLLSREISLLEEPLNENSDSHNMANKKNVANFEEIKKNDENNNRKRKEMEEKLKYIEKYRNYAKGVLKNVEFKCENVDDLKSKVKCNLCVYTEIVNNKHIRQGQIIQIFMNECMYGFYYYDNINQYTQNNEYNNKALKDYNSAQKLDDIYFNIAKDISEGNVNGINFFKQQSSKYHPVCYVTE
modifications: bait human Fc-tagged dimer; N-glycosylation sequons mutated in Plasmodium baits
As for B2, the binding score is 9.97 with ADP103 and 20 in the test with ADP144.

B3: ADP253 (protein)
chain: ANAFYVDNGQEMLIKEKEHYSSDSEHHKEESASIGNLNVFFPAENYHFSTYMGFDRRSFLPSNEIELEKMIGANFANEVKNYCSRQNVAQKIGDYLNIAFEYSRALEELRSEMILDFNKRKHLTNNADDTILHMIENAEKRKNDPNYKEAYENKDYANNANIFMNEYSNPLSTKYNKILKEYLCHLFVNNPGTKPLERLYYNSLALGELVEPIRNKFKSLASSTIDFNYEIHMASASNIYLLAHFLVLSLAYLSYNEYFTTGTKSFYSLPTILTANSDNSFFMLNEMCNIHYNPNKNFKKDITFIPIESRPKRTTTFYGERRLTCDLLELVLNAIMLININEINNVFSNNNVDGYENSLSFSHNAIRIFSKVCPKINNDNVLKCEFEESSLYNPKIIKNDASEKSSQKNLKKAFDLLRTYAEIEGHSAEGSTSPYYVSLILDDMKYNDFYKYTLWYEPRELIYGDIRGMQMKKKKKTKYIYNDFMKKSTQLKKKLIKNDLKYNLKSKGLVFLYAMIDKYGSILNKAQKAKVQFLNSASSIRYYLYLNKVIFKSAKTYLDIMKRVLEELQTSTNTPLKFLVRGNYIENINNIARNDNMFYANLFVLTALSRRDPVKDYYNDKRKMLSATLAEKFANSASMLIPHKLRKLVVSMKKGLLKKKLLTSLAKVKLLQHIPAHMLENIASSIRFTTHTIATMQIIQNAKYMSKHNFAQYDSKGMLARQIFTKGGFAEYADNLMAKWFSKGFEEYKREQIENFKMENSIDSELKDSEREDENDASEESAKKKLQDLQLEEREKMKKENSLLFNQADKWDQFINKELVRALGLWLEFNDNPANAASFVYKVVEDSKHLLENNIDNNIIFSRTVKPTKQTAFRRFFNKILSLGNMLLRKPSFRVEHALWFGATIDIKKAFILLEKVSELHKMLNNQDESWLINEAFIEIVDHVVDLSTYKHVREPFGVARNPGMMAINPKYAELSHENRLRELQNSMCADHCSSVWKVISSFALHHLKNPDSLHTYESKFSKNSFGNKIDDKDFVHNFKMILGGDAVLHYFDNLLPKTMKKDLKAMKYGVSLTSAYSLKLTKIIFSQMQLPYLSQMFYMQAPYFGHFIGKWQKKRQQSRLKEIMSFMTLGSLSAYTLFSAMDITQQAKDIGAGPVASCFTTRMSPPQQICLNSVVNAALSTSTQSAMKCVFSV
modifications: bait human Fc-tagged dimer; N-glycosylation sequons mutated in Plasmodium baits
B3 yielded a binding score in the test with ADP390 of 7.2.

B4: ADP247 (protein)
chain: GIISGRINIAAEFHINIFVKDYFKKKKLTFVNFVSLCPKGFNIENNKCIPCPIGLYYSNSKSINQCIPCENYRKHSTTLYNSAKSKTECLCKPGYFLKDKRCVKCVAGFYKDQIGNFKCQGTCENTKMSIEVGAKNYEELKCTCKDGYFTEKKKKECIPCPFGNYCIYNPKVKYKADIIRCKNNKLTLHRGSKSPNDCLCSQGYYHDYKMDECELCNYDQYKSHISNDPCVPFISKSLVNQEYLINEPYFQYTNIYIKQTSNIIFAPKKGSKMFHEATLCETGYSYSMNKAICSICRYNNYCLGLDHSSIICPKNSITIKLKSVSALDCLCIKGYGRIIINTNQAFTISCIPCPYNTFQPHHSYGKCIPCPPHTFTKITGATSITECIPKMGYYNIAFEYIYEYSKQQMLNSIPHFIQYYHYFLKNQYEHFA
modifications: bait human Fc-tagged dimer; N-glycosylation sequons mutated in Plasmodium baits
As for B4, the binding score with ADP368 stood at 5.45; with ADP315, 5.78; in the test with ADP323 it was 5.73; with ADP366, 5.26.
